The text below walks through data of patent publication US11214614B2, “LTBP complex-specific inhibitors of TGFβ and uses thereof” (Scholar Rock, Inc., priority 2019, dated 2022).

One assay has as its target huLTBP3 proTGFβ1 (Homo sapiens, UniProt P01137+Q9NS15). The assay can be described thus: Octet (BLI) binding, IgG captured on AHC tips, antigen at 100 nM. The conditions noted are these: Table 9, cycle 3, IgG1-agly; for Hu LTBP3-proTGFβ1 Kon: 1:1 fit; for Hu LTBP3-proTGFβ1 Koff: 5-minute dissociation. Here is the method: (§1) Suitable methods for in vitro binding assays to determine the parameters of binding kinetics include Bio-layer Interferometry (BLI)-based assays such as Octet, and surface plasmon resonance (SPR)-based assays, such as Biacore systems (see, for example: biophysics.bioc.cam.ac.uk/wp-content/uploads/2011/02/Biacore_assay_handbook.pdf).
(§2) The affinity of SR-AB10, SR-AB2 and SR-AB13 was measured by Octet assay. The protocol used to measure the affinity of the antibodies to the complexes provided herein is summarized below.
(§3) • 96 well black polypropylene plates • AHC Octet tips (anti-human IgG Fc capture tips) (FortdBio) • 10× kinetics buffer (FortdBio) (diluted to 1× in PBS) • reiner Bio-One 96-Well Half Area Microplates (VWR cat #82050-044) Procedure:
(§4) Notes: The volume within each well during an Octet experiment is 100 uL.
(§5) A shake speed of 1000 rpm is used for all assay steps.
(§6) Pre-Wet Tips: • Biosensors must be pre-wet in 1× kinetics buffer (lx KB) for at least 10 minutes before starting an experiment. This can be done inside the Octet or on the bench.
(§7) Loading: • Tips are baselined in 1× KB for 1 minute before loading. • AHC tips are loaded with antibody at a concentration of 1 μg/mL (˜7 nM) for 3 minutes. A limit is set so that loading will stop when any one sensor reaches a response of 1 nanometer. • Tips are baselined in buffer for 1 minute after loading. The antibody should not dissociate from the tips during this time.
(§8) Antigen Association: • TGFβ1 in complex with various presentation molecules was associated to the immobilized antibodies at a single concentration of 100 nM in 1× KB.
(§9) Antibody Dissociation: • Dissociation in 1×KB was performed for 3 minutes.
(§10) Data Analysis using ForteBio Data analysis software 8.2: • Processing: align Y axis to last 5 seconds of baseline, perform inter-step correction with align to dissociation, and perform Savitzky-Golay filtering. • Analysis: 1:1 fitting model is utilized. Fitting is local and full. […] Results:
(§11) LTBP complex-specific antibodies from the first round of affinity maturation/optimization (SR-AB14, SR-AB16, SR-AB17, SR-AB18, SR-AB19) were selected for a second round of affinity maturation/optimization (i.e., CDR-H3 mutagenesis as described herein) and particular progeny antibodies (SR-AB20, SR-AB21, SR-AB22, SR-AB23, SR-AB24, SR-AB25, SR-AB26, SR-AB27, SR-AB28, and SR-AB29) were assessed for their ability to bind various proTGFβl constructs. Binding affinities of the optimized antibodies were measured by Octet against human LTBP1-proTGFβI, human LTBP3-proTGFb1, mouse LTBP1-proTGFβ1, mouse LTBP3-proTGFb1, and GARP-proTGFβl complexes, essentially as described in Example 6. In brief, test antibodies were immobilized to the surface of anti-human Fc capture biosensors (AHC) (ForteBio®) and binding was then tested against the various TGFβ1 complexes at a single concentration of 100 nM to assess binding affinities. The antigens were allowed to associate for 3 minutes followed by a 5-minute dissociation. Kinetics buffer (ForteBio®) was used throughout the experiment, and KD was determined using a 1:1 fitting model for each antibody antigen pair.
(§12) Binding affinities of the optimized antibodies were measured by Octet against human LTBP1-proTGFβ1, human LTBP3-proTGFβ1, mouse LTBP1-proTGFβ1, mouse LTBP3-proTGFβ1, and GARP-proTGFβ1 complexes, essentially as described in Example 6. In brief, test antibodies were immobilized to the surface of anti-human Fc capture biosensors (AHC) (ForteBio®) and binding was then tested against the various TGFβ1 complexes at a single concentration of 100 nM to assess binding affinities. The antigens were allowed to associate for 3 minutes followed by a 5-minute dissociation. Kinetics buffer (ForteBio®) was used throughout the experiment, and KD was determined using a 1:1 fitting model for each antibody antigen pair.
(In general: BLI is a label-free optical method that tracks binding on a fibre tip over time.)

For the next assay, the target named is huGARP proTGFβ1 (Homo sapiens, UniProt P01137). Described as above. To be noted: N.B. = non-binder under conditions of this assay; for ForteBio IgG KD Hu GARP-proTGFβ1 (M) Avid: Table 9, cycle 3, IgG1-agly, 1:1 fit; for ForteBio IgG KD Hu GARP-proTGFβ1 in solution (M) Avid: Table 10, same assay conditions as Table 9. Here is the method: as §1, §2, §3, §4, §5, §6, §7, §8, §9, §10, §11
Sequence of huGARP proTGFβ1 (P01137 30-390): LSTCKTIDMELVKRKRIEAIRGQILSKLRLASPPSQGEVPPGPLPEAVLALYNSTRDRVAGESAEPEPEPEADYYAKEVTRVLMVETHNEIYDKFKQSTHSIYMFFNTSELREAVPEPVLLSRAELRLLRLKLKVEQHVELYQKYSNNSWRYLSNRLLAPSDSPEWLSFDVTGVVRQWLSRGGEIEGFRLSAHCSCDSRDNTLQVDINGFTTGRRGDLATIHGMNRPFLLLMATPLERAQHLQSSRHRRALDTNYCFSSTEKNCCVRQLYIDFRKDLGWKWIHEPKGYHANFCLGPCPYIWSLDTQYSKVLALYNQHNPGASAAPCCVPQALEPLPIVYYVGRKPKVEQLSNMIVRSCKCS
Sequence of huGARP proTGFβ1 (Q14392 18-627 partner limits assumed): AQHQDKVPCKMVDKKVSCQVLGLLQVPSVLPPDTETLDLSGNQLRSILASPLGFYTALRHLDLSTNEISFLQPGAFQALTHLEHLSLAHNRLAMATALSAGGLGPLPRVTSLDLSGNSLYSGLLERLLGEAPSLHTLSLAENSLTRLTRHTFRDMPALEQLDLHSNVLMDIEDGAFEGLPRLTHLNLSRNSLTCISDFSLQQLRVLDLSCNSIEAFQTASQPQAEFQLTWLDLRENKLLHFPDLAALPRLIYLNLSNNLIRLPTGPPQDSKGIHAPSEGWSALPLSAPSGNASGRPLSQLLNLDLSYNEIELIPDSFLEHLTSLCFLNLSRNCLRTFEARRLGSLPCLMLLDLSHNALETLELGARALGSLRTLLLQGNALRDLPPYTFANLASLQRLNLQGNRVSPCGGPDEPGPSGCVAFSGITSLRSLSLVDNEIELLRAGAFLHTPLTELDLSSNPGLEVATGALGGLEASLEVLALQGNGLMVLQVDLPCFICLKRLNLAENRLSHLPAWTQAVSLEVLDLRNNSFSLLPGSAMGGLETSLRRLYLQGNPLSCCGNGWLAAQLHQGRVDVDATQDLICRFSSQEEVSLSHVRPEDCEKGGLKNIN
as §12, with “pair. […]” for “pair.”

The target in a further assay is huLTBP1 proTGFβ1 (Homo sapiens, UniProt P01137+Q14766). The description is as above. The conditions noted are these: Table 9, cycle 3, IgG1-agly. Here is the method: as §1, §2, §3, §4, §5, §6, §7, §8, §9, §10, §11
Sequence of huLTBP1 proTGFβ1 (P01137 30-390): as the sequence (P01137 30-390) above
Sequence of huLTBP1 proTGFβ1 (Q14766 347-1721 limits assumed): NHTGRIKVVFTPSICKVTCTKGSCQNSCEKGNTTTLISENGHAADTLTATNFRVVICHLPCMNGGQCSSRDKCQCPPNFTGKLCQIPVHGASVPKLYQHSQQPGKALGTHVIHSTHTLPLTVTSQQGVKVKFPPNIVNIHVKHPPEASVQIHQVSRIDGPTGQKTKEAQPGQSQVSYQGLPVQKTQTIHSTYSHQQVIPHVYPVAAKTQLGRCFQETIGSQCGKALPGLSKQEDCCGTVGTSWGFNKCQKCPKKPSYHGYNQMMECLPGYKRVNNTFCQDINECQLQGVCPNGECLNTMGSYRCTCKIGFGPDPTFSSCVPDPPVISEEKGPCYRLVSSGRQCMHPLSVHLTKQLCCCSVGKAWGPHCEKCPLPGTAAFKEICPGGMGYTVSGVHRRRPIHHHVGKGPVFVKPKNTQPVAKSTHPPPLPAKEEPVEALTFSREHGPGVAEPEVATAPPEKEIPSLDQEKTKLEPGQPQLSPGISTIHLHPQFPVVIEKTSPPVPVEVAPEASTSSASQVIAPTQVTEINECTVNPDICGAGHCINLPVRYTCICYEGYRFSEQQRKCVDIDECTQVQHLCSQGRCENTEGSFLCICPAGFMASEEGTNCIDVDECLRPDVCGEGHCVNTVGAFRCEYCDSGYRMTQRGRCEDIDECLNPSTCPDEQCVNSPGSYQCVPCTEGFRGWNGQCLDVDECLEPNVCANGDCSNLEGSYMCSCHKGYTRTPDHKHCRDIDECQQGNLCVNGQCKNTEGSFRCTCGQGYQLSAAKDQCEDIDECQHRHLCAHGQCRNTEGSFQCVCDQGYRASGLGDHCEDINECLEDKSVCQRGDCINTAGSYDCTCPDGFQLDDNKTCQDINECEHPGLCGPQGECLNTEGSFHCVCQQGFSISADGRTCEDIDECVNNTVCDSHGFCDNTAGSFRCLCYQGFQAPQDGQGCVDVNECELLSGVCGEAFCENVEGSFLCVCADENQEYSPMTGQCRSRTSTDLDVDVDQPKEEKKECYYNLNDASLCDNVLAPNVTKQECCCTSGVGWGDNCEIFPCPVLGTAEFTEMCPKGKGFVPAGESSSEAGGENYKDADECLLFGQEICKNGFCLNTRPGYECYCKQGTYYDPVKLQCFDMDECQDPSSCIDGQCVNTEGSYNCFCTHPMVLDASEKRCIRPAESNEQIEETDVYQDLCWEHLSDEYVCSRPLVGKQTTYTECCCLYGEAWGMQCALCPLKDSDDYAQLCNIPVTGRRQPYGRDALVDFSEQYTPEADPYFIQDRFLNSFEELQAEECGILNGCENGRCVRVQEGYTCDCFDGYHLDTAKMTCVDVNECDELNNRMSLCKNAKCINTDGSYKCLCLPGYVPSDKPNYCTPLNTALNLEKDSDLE
as §12, with “pair. […]” for “pair.”

Assay [1] deals with proTGFβ1 presented by endogenous LTBP1/3 in LN229 cells. Kind of assay: Endogenous LTBP caga assay: LN229 cells transfected with human proTGFβ1 only, CAGA12 luciferase reporter cells. To be noted: Table 20: protocol of Example 10 with Fabs (RefAb also as hIgG4), assay format not stated. In kind it is cell-based.
Sequence of proTGFβ1 presented by endogenous LTBP1/3 in LN229 cells (P01137 30-390): as the sequence (P01137 30-390) above

Sequence of huLTBP3 proTGFβ1 (P01137 30-390): as above
Sequence of huLTBP3 proTGFβ1 (Q9NS15 44-1303): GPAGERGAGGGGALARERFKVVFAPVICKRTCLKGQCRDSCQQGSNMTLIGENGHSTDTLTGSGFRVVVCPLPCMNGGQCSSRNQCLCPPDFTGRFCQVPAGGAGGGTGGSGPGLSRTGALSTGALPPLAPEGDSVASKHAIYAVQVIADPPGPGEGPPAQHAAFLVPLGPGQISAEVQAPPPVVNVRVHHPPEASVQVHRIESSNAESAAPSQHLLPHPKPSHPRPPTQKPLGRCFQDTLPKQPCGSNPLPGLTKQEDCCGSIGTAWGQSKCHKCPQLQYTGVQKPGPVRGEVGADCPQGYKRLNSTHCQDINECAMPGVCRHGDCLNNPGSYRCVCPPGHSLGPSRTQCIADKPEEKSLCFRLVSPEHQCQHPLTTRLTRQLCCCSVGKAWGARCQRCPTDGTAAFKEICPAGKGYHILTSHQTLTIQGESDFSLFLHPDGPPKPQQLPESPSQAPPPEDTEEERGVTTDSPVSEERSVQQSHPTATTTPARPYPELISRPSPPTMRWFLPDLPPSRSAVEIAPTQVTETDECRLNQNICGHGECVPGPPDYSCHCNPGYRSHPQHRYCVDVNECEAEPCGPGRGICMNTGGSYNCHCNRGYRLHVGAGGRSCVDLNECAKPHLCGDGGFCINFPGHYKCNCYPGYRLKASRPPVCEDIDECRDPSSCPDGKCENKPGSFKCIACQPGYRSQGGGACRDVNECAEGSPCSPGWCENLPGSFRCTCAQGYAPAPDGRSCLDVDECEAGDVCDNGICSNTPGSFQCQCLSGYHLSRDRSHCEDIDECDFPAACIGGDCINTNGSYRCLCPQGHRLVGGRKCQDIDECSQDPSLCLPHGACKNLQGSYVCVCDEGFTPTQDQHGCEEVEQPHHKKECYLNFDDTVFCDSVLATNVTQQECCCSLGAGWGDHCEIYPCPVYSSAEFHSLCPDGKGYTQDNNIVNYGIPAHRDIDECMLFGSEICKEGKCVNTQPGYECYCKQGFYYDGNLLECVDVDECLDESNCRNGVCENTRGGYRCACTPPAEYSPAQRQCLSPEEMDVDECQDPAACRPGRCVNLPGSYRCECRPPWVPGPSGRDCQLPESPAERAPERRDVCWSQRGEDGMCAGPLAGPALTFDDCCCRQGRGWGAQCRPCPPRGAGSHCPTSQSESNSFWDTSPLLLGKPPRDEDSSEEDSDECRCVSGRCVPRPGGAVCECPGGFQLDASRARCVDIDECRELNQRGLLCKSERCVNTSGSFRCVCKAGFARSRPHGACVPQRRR

B1: SR-AB64: cycle 3 light chain-optimized antibody, lineage SR-AB26; CDRs SEQ ID NO: 298-303 (antibody, V domains shown)
VH: QLQLQESGPGLVKPSETLSLTCTVSGGSIRSSSYYWGWIRQPPGKGLEWIGSISYSATTYYNPSLKSRVTISVDTSKNQFSLKLSSVTAADTAVYYCAGDPSYDSIAGMQVWGQGTTVTVSS
VL: DIQMTQSPSSLSASVGDRVTITCRASQSISYYLNWYQQKPGKAPKLLIYSASSRQSGVPSRFSGSGSGTDFTLTISSLQPEDFATYYCQQGFDFPLTFGGGTKVEIK
In the case of B1, in the assay with huLTBP3 proTGFβ1, the “Hu LTBP3-proTGFβ1 Kon” value is 195000 M⁻¹ s⁻¹ and the “Hu LTBP3-proTGFβ1 Koff” value worked out at 9.18e-05 s⁻¹. Further, in the assay with huGARP proTGFβ1, the “ForteBio IgG KD Hu GARP-proTGFβ1 (M) Avid” value was “N.B” and the “ForteBio IgG KD Hu GARP-proTGFβ1 in solution (M) Avid” value was “N.B”.

B2: SR-AB40: cycle 3 light chain-optimized antibody, lineage SR-AB23; CDRs SEQ ID NO: 154-159 (antibody, V domains shown)
VH: QVQLVESGGGVVQPGRSLRLSCAASGFTFRSYVMHWVRQAPGKGLEWVAVISHEGSLKYYADSVKGRFTISRDNSKNTLYLQMNSLRAEDTAVYYCARPRIAARRGGFGYWGQGTLVTVSS
VL: NFMLTQPHSVSESPGKTVTISCTRSSGNIDNNYVQWYQQRPGSSPTTVIYEDNQRPSGVPDRFSGSIDSSSNSASLTISGLKTEDEADYYCQSYDYSNQGVVFGGGTKLTVL
On to B2, for which, in the assay with huLTBP3 proTGFβ1, the “Hu LTBP3-proTGFβ1 Kon” value was 182000 M⁻¹ s⁻¹ and the “Hu LTBP3-proTGFβ1 Koff” value was 6.07e-05 s⁻¹. In addition, in the assay with huGARP proTGFβ1, the “ForteBio IgG KD Hu GARP-proTGFβ1 (M) Avid” value is “N.B” and the “ForteBio IgG KD Hu GARP-proTGFβ1 in solution (M) Avid” value was “N.B”. Also, the “Hu LTBP1-proTGFβ1 Kon” value with huLTBP1 proTGFβ1 (1:1 fit) came out at 150000 M⁻¹ s⁻¹. Moreover, the “Hu LTBP1-proTGFβ1 Koff” value with huLTBP1 proTGFβ1 (5-minute dissociation) amounted to 6e-05 s⁻¹.

B3: SR-AB58 Fab (antibody, V domains shown)
VH: QVQLVESGGGVVQPGRSLRLSCAASGFTFRSYVMHWVRQAPGKGLEWVAVISHEGSGKYYADSVKGRFTISRDNSKNTLYLQMNSLRAEDTAVYYCALPRIAARRGGFGTWGQGTLVTVSS
VL: NFMLTQPHSVSESPGKTVTISCTRSSGNIDYNYVQWYQQRPGSSPTTVIYEDNVRPSGVPDRFSGSIDSSSNSASLTISGLKTEDEADYYCQSYDSDNQRVVFGGGTKLTVL
For orientation: IC50 means the point on the concentration scale where inhibition reaches its midpoint. A higher IC50 goes with a need for much substance. In assay [1], B3 had an IC50 of 4.86 nM.

B4: SR-AB52 Fab (antibody, V domains shown)
VH: QVQLVESGGGVVQPGRSLRLSCAASGFTFRSYVMHWVRQAPGKGLEWVAVISHEGSGKYYADSVKGRFTISRDNSKNTLYLQMNSLRAEDTAVYYCARPRIAARRGGFGTWGQGTLVTVSS
VL: NFMLTQPHSVSESPGKTVTISCTRSSGNIDYNYVQWYQQRPGSSPTTVIYEDNVRPSGVPDRFSGSIDSSSNSASLTISGLKTEDEADYYCQSYDYDTQGVVFGGGTKLTVL
Regarding B4, in assay [1], the IC50 was determined as 0.459 nM.

B5: SR-AB59 Fab (antibody, V domains shown)
VH: QVQLVESGGGVVQPGRSLRLSCAASGFTFRSYVMHWVRQAPGKGLEWVAVISHEGSGKYYADSVKGRFTISRDNSKNTLYLQMNSLRAEDTAVYYCALPRIAARRGGFGTWGQGTLVTVSS
VL: NFMLTQPHSVSESPGKTVTISCTRSSGNIDYNYVQWYQQRPGSSPTTVIYEDNVRPSGVPDRFSGSIDSSSNSASLTISGLKTEDEADYYCQSYDYDNQAVVFGGGTKLTVL
In assay [1], B5 came in with an IC50 of 0.195 nM.

B6: SR-AB54 Fab (antibody, V domains shown)
VH: QVQLVESGGGVVQPGRSLRLSCAASGFTFRSYVMHWVRQAPGKGLEWVAVISHEGSGKYYADSVKGRFTISRDNSKNTLYLQMNSLRAEDTAVYYCALPRIAARRGGFGSWGQGTLVTVSS
VL: NFMLTQPHSVSESPGKTVTISCTRSSGNIDYNYVQWYQQRPGSSPTTVIYEDNVRPSGVPDRFSGSIDSSSNSASLTISGLKTEDEADYYCQSYDSDNQRVVFGGGTKLTVL
Take B6: half-maximal inhibition in assay [1] (IC50) was put at 5.87 nM. Compared with the last molecule, the IC50 is about 30-fold higher.

B7: SR-AB53 Fab (antibody, V domains shown)
VH: QVQLVESGGGVVQPGRSLRLSCAASGFTFRSYVMHWVRQAPGKGLEWVAVISHEGSGKYYADSVKGRFTISRDNSKNTLYLQMNSLRAEDTAVYYCARPRIAARRGGFGTWGQGTLVTVSS
VL: NFMLTQPHSVSESPGKTVTISCTRSSGNIDYNYVQWYQQRPGSSPTTVIYEDNVRPSGVPDRFSGSIDSSSNSASLTISGLKTEDEADYYCQGYDWDTQGVVFGGGTKLTVL
B7: half-maximal inhibition in assay [1] (IC50) required 1.18 nM.

B8: SR-AB50 Fab (antibody, V domains shown)
VH: QVQLVESGGGVVQPGRSLRLSCAASGFTFRSYVMHWVRQAPGKGLEWVAVISHEGSGKYYADSVKGRFTISRDNSKNTLYLQMNSLRAEDTAVYYCARPRIAARRGGFGTWGQGTLVTVSS
VL: NFMLTQPHSVSESPGKTVTISCTRSSGNIDYNYVQWYQQRPGSSPTTVIYEDNVRPSGVPDRFSGSIDSSSNSASLTISGLKTEDEADYYCQSYDSDNQRVVFGGGTKLTVL
In the case of B8, in assay [1], the midpoint of inhibition, the IC50, lay at 11 nM.

B9: SR-Ab56 Fab (antibody, V domains shown)
VH: QVQLVESGGGVVQPGRSLRLSCAASGFTFRSYVMHWVRQAPGKGLEWVAVISHEGSGKYYADSVKGRFTISRDNSKNTLYLQMNSLRAEDTAVYYCALPRIAARRGGFGSWGQGTLVTVSS
VL: NFMLTQPHSVSESPGKTVTISCTRSSGNIDYNYVQWYQQRPGSSPTTVIYEDNVRPSGVPDRFSGSIDSSSNSASLTISGLKTEDEADYYCQSYDYDTQGVVFGGGTKLTVL
In assay [1], B9 yielded an IC50 of 0.439 nM.

B10: SR-AB23 Fab (antibody, V domains shown)
VH: QVQLVESGGGVVQPGRSLRLSCAASGFTFRSYVMHWVRQAPGKGLEWVAVISHEGSLKYYADSVKGRFTISRDNSKNTLYLQMNSLRAEDTAVYYCARPRIAARRGGFGYWGQGTLVTVSS
VL: NFMLTQPHSVSESPGKTVTISCTRSSGNIDNNYVQWYQQRPGSSPTTVIYEDNQRPSGVPDRFSGSIDSSSNSASLTISGLKTEDEADYYCQSYDSDNQGVVFGGGTKLTVL
In assay [1], B10 came in with an IC50 of 8.53 nM.

B11: SR-AB47 Fab (antibody, V domains shown)
VH: QVQLVESGGGVVQPGRSLRLSCAASGFTFRSYVMHWVRQAPGKGLEWVAVISHEGSGKYYADSVKGRFTISRDNSKNTLYLQMNSLRAEDTAVYYCARPRIAARRGGFGSWGQGTLVTVSS
VL: NFMLTQPHSVSESPGKTVTISCTRSSGNIDYNYVQWYQQRPGSSPTTVIYEDNVRPSGVPDRFSGSIDSSSNSASLTISGLKTEDEADYYCQSYDYDNQAVVFGGGTKLTVL
As for B11, half-maximal inhibition in assay [1] (IC50) was put at 0.186 nM.
